{"source": "patent US20210364527A1", "about": "(QUANTUM SI, published 2021)", "binders": {"B1": {"name": "PS372 (ClpS homolog) (other)", "chain": "MAFPARGKTAPKNEVRRQPPYNVILLNDDDHTYRYVIEMLQKIFGFPPEKGFQIAEEVDRTGRVILLTTSKEHAELKQDQVHSYGPDPYLGRPCSGSMTCVIEPAV", "notes": "also called PS372-Bt; PS372-Bt-mPEG4"}}, "key": {"[1]": {"target": "T1, IR peptide IRKLDEESILKQK (XXKLDEESILKQK, XX = IR)", "T1 construct": "Biolayer interferometry", "T1 peptide": "IRKLDEESILKQK", "assay": "biolayer interferometry"}, "[2]": {"target": "T2, IQ peptide IQKLDEESILKQK (XXKLDEESILKQK, XX = IQ)", "T2 construct": "Biolayer interferometry", "T2 peptide": "IQKLDEESILKQK", "assay": "biolayer interferometry"}, "[3]": {"target": "T3, VR peptide VRKLDEESILKQK (XXKLDEESILKQK, XX = VR)", "T3 construct": "Biolayer interferometry", "T3 peptide": "VRKLDEESILKQK", "assay": "biolayer interferometry"}, "[4]": {"target": "T4, FITC-labeled FA peptide FAKLDEESILKQK-FITC", "T4 peptide": "FAKLDEESILKQK-{FITC′}", "assay": "fluorescence polarization, single point"}, "[5]": {"target": "T5, FITC-labeled YA peptide YAKLDEESILKQK-FITC", "T5 peptide": "YAKLDEESILKQK-{FITC′}", "assay": "fluorescence polarization, single point"}, "[6]": {"target": "T6, FITC-labeled WA peptide WAKLDEESILKQK-FITC", "T6 peptide": "WAKLDEESILKQK-{FITC′}", "assay": "fluorescence polarization, single point"}, "[7]": {"target": "T7, LA peptide LAKLDEESILKQK (XAKLDEESILKQK, X = L)", "T7 construct": "Immobilized on the biolayer interferometry sensor", "T7 peptide": "LAKLDEESILKQK", "assay": "biolayer interferometry as in Example 12"}, "[8]": {"target": "T8, IA peptide IAKLDEESILKQK (XAKLDEESILKQK, X = I)", "T8 construct": "Immobilized on the biolayer interferometry sensor", "T8 peptide": "IAKLDEESILKQK", "assay": "biolayer interferometry as in Example 12"}, "[9]": {"target": "T9, VA peptide VAKLDEESILKQK (XAKLDEESILKQK, X = V)", "T9 construct": "Immobilized on the biolayer interferometry sensor", "T9 peptide": "VAKLDEESILKQK", "assay": "biolayer interferometry as in Example 12"}, "[10]": {"target": "T10, F peptide FAKLDEESILKQK (XAKLDEESILKQK, X = F)", "T10 construct": "Immobilized on the biolayer interferometry sensor", "T10 peptide": "FAKLDEESILKQK", "assay": "biolayer interferometry as in Example 12"}, "[11]": {"target": "T11, Y peptide YAKLDEESILKQK (XAKLDEESILKQK, X = Y)", "T11 construct": "Immobilized on the biolayer interferometry sensor", "T11 peptide": "YAKLDEESILKQK", "assay": "biolayer interferometry, peptide immobilized on the sensor, 30 C"}, "[12]": {"target": "T12, W peptide WAKLDEESILKQK (XAKLDEESILKQK, X = W)", "T12 construct": "Immobilized on the biolayer interferometry sensor", "T12 peptide": "WAKLDEESILKQK", "assay": "biolayer interferometry, peptide immobilized on the sensor, 30 C"}, "[13]": {"target": "T13, FITC-labeled LA peptide LAKLDEESILKQK-FITC", "T13 peptide": "LAKLDEESILKQK-{FITC′}", "assay": "fluorescence polarization, FITC-peptide with ClpS:streptavidin complex, 23 C"}, "[14]": {"target": "T14, FITC-labeled IA peptide IAKLDEESILKQK-FITC", "T14 peptide": "IAKLDEESILKQK-{FITC′}", "assay": "fluorescence polarization, FITC-peptide with ClpS:streptavidin complex, 23 C"}, "[15]": {"target": "T15, FITC-labeled VA peptide VAKLDEESILKQK-FITC", "T15 peptide": "VAKLDEESILKQK-{FITC′}", "assay": "fluorescence polarization, FITC-peptide with ClpS:streptavidin complex, 23 C"}, "I (IAWLVK)": {"target": "T16, I (IAWLVK)", "T16 chain": "IAWLVK", "assay": "dynamic sequencing of EFIAWLVK with PS610, PS372, hTET and pfuTET"}}, "note": "Primed or numbered codes have the meaning given here. Ends that are not written are not given here. FITC′ = not defined here", "data": [{"binder": "B1", "values": [{"measurement": "binding result", "setting": "[1]", "value": "binds"}, {"measurement": "binding result", "setting": "[2]", "value": "binds"}, {"measurement": "binding result", "setting": "[3]", "value": "no binding"}, {"measurement": "binding result", "setting": "[4]", "value": "no binding"}, {"measurement": "binding result", "setting": "[5]", "value": "no binding"}, {"measurement": "binding result", "setting": "[6]", "value": "no binding"}, {"measurement": "binding result", "setting": "[7]", "value": "binds"}, {"measurement": "binding result", "setting": "[8]", "value": "binds"}, {"measurement": "binding result", "setting": "[9]", "value": "binds"}, {"measurement": "binding result", "setting": "[10]", "value": "no binding"}, {"measurement": "binding result", "setting": "[11]", "value": "no binding"}, {"measurement": "binding result", "setting": "[12]", "value": "no binding"}, {"measurement": "binding result", "setting": "[13]", "value": "binds"}, {"measurement": "binding result", "setting": "[14]", "value": "binds"}, {"measurement": "binding result", "setting": "[15]", "value": "binds"}, {"measurement": "binding result", "setting": "I (IAWLVK)", "value": "binds"}]}]}
